T1: NK cell inhibitory receptor NKRP1A (CD161) (human, UniProt Q12918 1-225)
T1 sequence (looked up): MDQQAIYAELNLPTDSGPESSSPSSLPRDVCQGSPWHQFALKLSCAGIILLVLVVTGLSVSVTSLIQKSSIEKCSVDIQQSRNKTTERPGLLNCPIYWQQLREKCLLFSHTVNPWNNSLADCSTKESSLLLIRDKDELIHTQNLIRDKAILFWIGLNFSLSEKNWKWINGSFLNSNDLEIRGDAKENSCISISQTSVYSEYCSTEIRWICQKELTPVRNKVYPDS

B1: Lectin-like transcript 1 (LLT1) (ligand)
chain: MHDSNNVEKDITPSELPANPGCLHSKEHSIKATLIWRLFFLIMFLTIIVCGMVAALSAIRANCHQEPSVCLQAACPESWIGFQRKCFYFSDDTKNWTSSQRFCDSQDADLAQVESFQELNFLLRYKGPSDHWIGLSREQGQPWKWINGTEWTRQFPILGAGECAYLNDKGASSARHYTERKWICSKSDIHV
B2: mouse anti-human LLT1 mAb (clone #2E5) (antibody, V domains shown)
VH: EVQLQQSGADLVKPGASVKLSCTASGFNIKDTYMHWVIQRPEQGLDWIGRIDPANGNTNYDPKFRAKATITADTSSNTAYLQLSSLTSDDTAVYYCAGMDYHFDFWGQGTTLTVSS
VL: DIVMTQSPATLSVTPGDRVSLSCRASQSISDYLHWYQQKSHESPRLLIKYASQSISGIPSRFSGSGSGSDFTLSINSVEPEDVGVFYCQNGHSFPLTFGAGTKLELRR
notes: Mouse monoclonal antibody from hybridoma 2E5; It was detected with a PE-conjugated goat anti-mouse IgG secondary antibody; also called 2E5 mAb

Assay [1] deals with T1, NK cell inhibitory receptor NKRP1A …. Nature of the assay: cell-based or functional assay.
The target in assay [2] is B1. Nature of the assay: flow cytometry on DU145 cells (endogenous LLT1), PE goat anti-mouse IgG secondary, ratio to mIgG1 isotype control; clone taken from the FIG. 2 legend. On the technique in general: Flow cytometry measures light scatter and fluorescence of single cells or particles in a stream.
Assay [3] addresses B1. As to the kind of experiment: flow cytometry on 22Rv1 cells (endogenous LLT1), PE goat anti-mouse IgG secondary, ratio to mIgG1 isotype control; clone taken from the FIG. 2 legend.

B1: in assay [1], the “percent of MDA-MB-436 LLT1 siRNA-transfected cells killed by NK cells, 5:1 E:T ratio (51Cr release)” value is 21.8%; the “percent of MDA-MB-436 LLT1 siRNA-transfected cells killed by NK cells, 25:1 E:T ratio (51Cr release)” value stood at 63.4%; the “percent of MDA-MB-436 scramble siRNA-transfected cells killed by NK cells, 5:1 E:T ratio (51Cr release)” value was 18.9%; the “percent of MDA-MB-436 scramble siRNA-transfected cells killed by NK cells, 25:1 E:T ratio (51Cr release)” value was 42.2%.
Take B2: the “MFIR (mean fluorescence intensity ratio)” value in assay [2] worked out at 12; in assay [3] it was 14.4.

(Values after patent publication US20190071505A1 (UNIVERSITY OF NORTH TEXAS HEALTH SCIENCE CENTER, published 2019).)
